Here are results for two molecules from US20150239977A1 (MIT, published 2015).

The target of this assay is T1, CD20 protein on the surface of B-cells (Raji cells, a Burkitt's lymphoma cell line) (human, UniProt P11836 1-297).
T1 construct: also called CD20 antigen; B lymphocyte antigen CD20
T1 sequence: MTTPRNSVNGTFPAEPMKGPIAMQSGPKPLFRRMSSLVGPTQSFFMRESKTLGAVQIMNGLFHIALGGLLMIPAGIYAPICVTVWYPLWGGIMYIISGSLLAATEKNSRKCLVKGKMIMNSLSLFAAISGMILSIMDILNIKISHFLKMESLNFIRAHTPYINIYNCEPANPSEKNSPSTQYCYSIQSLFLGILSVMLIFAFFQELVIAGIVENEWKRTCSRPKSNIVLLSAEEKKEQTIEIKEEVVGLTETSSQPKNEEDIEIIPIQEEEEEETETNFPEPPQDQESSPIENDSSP
As to the kind of experiment: indirect immunofluorescence on Raji cells, flow cytometry. The procedure: Binding affinity of an antibody to its target antigen can be an indicator of antibody efficacy. An indirect immunofluorescence cell-based binding assay was conducted to determine the dissociation constant (KD) between select CD20-binding proteins of the invention and the targeted antigen (CD20 protein on the surface of B-Cells). […] Because of this, the raw data was fitted to the following equation: […]

B1: CD20-binding protein with M1/M2/M3/M4/M7 modifications (V3Q, A9S, I10S, V59S, L153D in the rituximab light chain) (antibody, human IgG1, kappa, V domains shown)
VH: QVQLQQPGAELVKPGASVKMSCKASGYTFTSYNMHWVKQTPGRGLEWIGAIYPGNGDTSYNQKFKGKATLTADKSSSTAYMQLSSLTSEDSAVYYCARSTYYGGDWYFNVWGAGTTVTVSA
VL: QIQLSQSPSSLSASPGEKVTMTCRASSSVSYIHWFQQKPGSSPKPWIYATSNLASGVPSRFSGSGSGTSYSLTISRVEAEDAATYYCQQWTSNPPTFGGGTKLEIKR
notes: Heavy chain unmodified; whole IgG as for the wild type; also called M1/2/3/4/7
In the case of B1, the binding result is “binds”.

B2: CD20-binding protein with the M9 modification (Y101S in the rituximab Fab heavy chain, in the CDR) (antibody, human IgG1, kappa, V domains shown)
VH: QVQLQQPGAELVKPGASVKMSCKASGYTFTSYNMHWVKQTPGRGLEWIGAIYPGNGDTSYNQKFKGKATLTADKSSSTAYMQLSSLTSEDSAVYYCARSTSYGGDWYFNVWGAGTTVTVSA
VL: QIVLSQSPAILSASPGEKVTMTCRASSSVSYIHWFQQKPGSSPKPWIYATSNLASGVPVRFSGSGSGTSYSLTISRVEAEDAATYYCQQWTSNPPTFGGGTKLEIKR
notes: Whole IgG as for the wild type; also called M9 (Y101S); CDR mutation
B2: the binding result is “no binding”.
